Source: patent publication US20230192860A1 (Bristol-Myers Squibb, published 2023)
Where a chain is given by its changes, count along the chain named. In names and notes the source's numbering stands.

B1: P1-077865 (P1-068748 H31S) (antibody, V domains shown)
VH: QVQLVESGGGVVQPGRSLRLSCAASGFTFSSHAMHWVRQAPGKGLEWVAIIWYDGSNDDYADSVKGRFTISRDNSKNTLYLQMNSLRAEDTAVYYCARDSGFYDSYYFDYWGQGTLVTVSS
VL: EIVLTQSPATLSLSPGERATLSCRASQSVSSSYLAWYQQKPGQAPRLLIYDASNRATGIPARFSGSGSGTDFTLTISSLEPEDFATYYCQQYNSYPYTFGQGTKLEIK
notes: Reversion mutant of P1-068748 (Kabat names); captured on a Protein A chip
B2: P1-077883 (P1-068748 H31S D57K) (antibody, V domains shown)
VH: B1 VH with D58K
VL: B1 VL
notes: as for B1
B3: P1-077867 (P1-068748 H32Y) (antibody, V domains shown)
VH: B1 VH with S31H, H32Y
VL: B1 VL
notes: as for B1
B4: P1-077875 (P1-068748 H31S H32Y) (antibody, V domains shown)
VH: B1 VH with H32Y
VL: B1 VL
notes: as for B1
B5: P1-077891 (P1-068748 H32Y D100S) (antibody, V domains shown)
VH: B1 VH with S31H, H32Y, D104S
VL: B1 VL
notes: as for B1
B6: P1-077873 (P1-068748 D100S) (antibody, V domains shown)
VH: B1 VH with S31H, D104S
VL: B1 VL
notes: as for B1
B7: P1-077887 (P1-068748 H31S D100S) (antibody, V domains shown)
VH: B1 VH with D104S
VL: B1 VL
notes: as for B1
B8: P1-077869 (P1-068748 D57K) (antibody, V domains shown)
VH: B1 VH with S31H, D58K
VL: B1 VL
notes: as for B1
B9: P1-077877 (P1-068748 H32Y D57K) (antibody, V domains shown)
VH: B1 VH with S31H, H32Y, D58K
VL: B1 VL
notes: as for B1
B10: P1-077881 (P1-068748 D58Y D100S) (antibody, V domains shown)
VH: B1 VH with S31H, D59Y, D104S
VL: B1 VL
notes: as for B1
B11: P1-077889 (P1-068748 H32Y D58Y) (antibody, V domains shown)
VH: B1 VH with S31H, H32Y, D59Y
VL: B1 VL
notes: as for B1
B12: P1-077893 (P1-068748 D57K D100S) (antibody, V domains shown)
VH: B1 VH with S31H, D58K, D104S
VL: B1 VL
notes: Reversion mutant of P1-068748 (Kabat names); the antibody was captured on a Protein A chip, so an Fc was present
B13: P1-069063 (antibody, human IgG1, kappa, V domains shown)
VH: EVQLVESGGGLVQPGKSLRLSCAASGFTLEDYAMHWVRQAPGKGLEWVSGINWNSAEIGYADSVKGRFTISRDNAKNSLYLQMNSLRTEDTALYYCAKVPGYSGGWIDADDEWGQGTMVTVSS
VL: not shown
notes: IgG1.3
B14: P1-069069 (antibody, human IgG1, kappa, V domains shown)
VH: B13 VH with E30D, A56E, E112V
VL: not shown
notes: IgG1.3
B15: P1-069071 (antibody, human IgG1, kappa, V domains shown)
VH: B13 VH with Y32E, E57D, G104E, D110F, E112V
VL: not shown
notes: IgG1.3
B16: P1-069067 (antibody, human IgG1, kappa, V domains shown)
VH: B13 VH with E30D, A56E
VL: not shown
notes: IgG1.3
B17: P1-069077 (antibody, human IgG1, kappa, V domains shown)
VH: B13 VH with Y32E, A56D, D110F, E112V
VL: not shown
notes: IgG1.3
B18: P1-069075 (antibody, human IgG1, kappa, V domains shown)
VH: B13 VH with N54D, G104H, D110E, E112V
VL: not shown
notes: IgG1.3
B19: P1-069065 (antibody, human IgG1, kappa, V domains shown)
VH: B13 VH with Y32E, A56D, E57D, D110F, E112V
VL: not shown
notes: IgG1.3

target: T1, monovalent hVISTA-ECD with polyhistidine tail (SEQ ID NO: 325) (human, UniProt Q9H7M9 33-193); experiment: SPR, mAb captured on Protein A chip, hVISTA injected, PBST pH 6.0, 37 C
T1 construct: also called hVISTA-ECD 6-His tag; human VISTA
T1 sequence (Q9H7M9 other isoform, or with tags, fused parts or gaps limits assumed): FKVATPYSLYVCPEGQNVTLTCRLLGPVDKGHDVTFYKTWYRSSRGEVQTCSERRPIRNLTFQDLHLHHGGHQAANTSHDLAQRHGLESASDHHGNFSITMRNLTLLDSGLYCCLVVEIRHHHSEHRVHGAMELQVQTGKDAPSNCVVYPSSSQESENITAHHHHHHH

Row | Binder | Kd | koff | kon
1 | B1 | 5.2 nM | 0.0028 s⁻¹ | 540000 M⁻¹ s⁻¹
2 | B2 | 6.7 nM | 0.002 s⁻¹ | 310000 M⁻¹ s⁻¹
3 | B3 | 2.2 nM | 0.0029 s⁻¹ | 1.3e+06 M⁻¹ s⁻¹
4 | B4 | 0.94 nM | 0.0018 s⁻¹ | 1.9e+06 M⁻¹ s⁻¹
5 | B5 | 0.36 nM | 0.00099 s⁻¹ | 2.7e+06 M⁻¹ s⁻¹
6 | B6 | 0.71 nM | 0.0012 s⁻¹ | 1.8e+06 M⁻¹ s⁻¹
7 | B7 | 0.52 nM | 0.0011 s⁻¹ | 2.1e+06 M⁻¹ s⁻¹
8 | B8 | 15 nM | 0.0026 s⁻¹ | 170000 M⁻¹ s⁻¹
9 | B9 | 2.2 nM | 0.0019 s⁻¹ | 840000 M⁻¹ s⁻¹
10 | B10 | 53 nM | 0.0034 s⁻¹ | 62000 M⁻¹ s⁻¹
11 | B11 | 130 nM | 0.022 s⁻¹ | 180000 M⁻¹ s⁻¹
12 | B12 | 0.43 nM | 0.00058 s⁻¹ | 1.4e+06 M⁻¹ s⁻¹

target: T1, monovalent hVISTA-ECD with …; experiment: SPR, mAb captured on Protein A chip, hVISTA injected, PBST pH 7.4, 37 C

Row | Binder | Kd | koff | kon
13 | B1 | 410 nM | 0.028 s⁻¹ | 69000 M⁻¹ s⁻¹
14 | B2 | 510 nM | 0.035 s⁻¹ | 68000 M⁻¹ s⁻¹
15 | B3 | 230 nM | 0.026 s⁻¹ | 120000 M⁻¹ s⁻¹
16 | B4 | 130 nM | 0.021 s⁻¹ | 160000 M⁻¹ s⁻¹
17 | B5 | 2.1 nM | 0.0025 s⁻¹ | 1.2e+06 M⁻¹ s⁻¹
18 | B6 | 3.6 nM | 0.003 s⁻¹ | 850000 M⁻¹ s⁻¹
19 | B7 | 3 nM | 0.0027 s⁻¹ | 910000 M⁻¹ s⁻¹
20 | B8 | 980 nM | 0.027 s⁻¹ | 28000 M⁻¹ s⁻¹
21 | B9 | 270 nM | 0.024 s⁻¹ | 88000 M⁻¹ s⁻¹
22 | B10 | 22 nM | 0.0036 s⁻¹ | 160000 M⁻¹ s⁻¹
23 | B11 | 2400 nM | 0.073 s⁻¹ | 31000 M⁻¹ s⁻¹
24 | B12 | 4.7 nM | 0.0019 s⁻¹ | 400000 M⁻¹ s⁻¹

target: T2, monovalent hVISTA-ECD (amino acids 32-193 of SEQ ID NO: 1 with a 7xHis tail) (human, UniProt Q9H7M9 33-193); experiment: SPR 37C, Ab on Protein A, hVISTA-ECD 50-5 nM, pH 7.4, average
T2 construct: analyte of the SPR assays; also called huVISTA-His; human VISTA-ECD
T2 sequence (Q9H7M9 other isoform, or with tags, fused parts or gaps limits assumed): as above
Procedure: (§1) Binding of several preparations of each of the ‘029 progeny clones and of the parent ‘029 antibodies, formatted as IgG1.3 antibodies, to human VISTA at pH 6.0 and 7.4 was measured by Surface plasmon resonance (SPR). SPR analysis was performed to measure koff and KD binding affinity measurements for VISTA Abs at acidic and neutral pHs using a Biacore® T100 instrument (GE Healthcare). […] Antibodies were diluted to 25 nM in PBST pH 7.4, and were captured across active biosensor flow cells at 5 ul/min for 60 seconds. A concentration series of 50 - 5 nM monovalent hVISTA-ECD (SEQ ID NO: 325) was prepared in pH 7.4 and 6.0 running buffers, and was injected over the captured antibodies at 40 ul/min to measure association and dissociation. Two 15 second injections of 10 mM glycine pH 1.5 were used to regenerate the Protein A capture surface between assay cycles. Rate constants ka (kₒₙ) and kd (koff) were derived from reference flow cell and 0 nM blank-subtracted sensorgrams, and were fit to a 1:1 binding model in Biacore® T200 Evaluation Software v.2.0. The affinity constant, KD was calculated as the ratio of rate constants koff/kₒₙ for each VISTA antibody.

Row | Binder | Kd | koff | kon
25 | B13 | 230 nM | 0.027 s⁻¹ | 120000 M⁻¹ s⁻¹
26 | B14 | 84 nM | 0.0075 s⁻¹ | 90000 M⁻¹ s⁻¹
27 | B15 | 93 nM | 0.004 s⁻¹ | 43000 M⁻¹ s⁻¹
28 | B16 | 290 nM | 0.027 s⁻¹ | 100000 M⁻¹ s⁻¹
29 | B17 | 31 nM | 0.0019 s⁻¹ | 60000 M⁻¹ s⁻¹
30 | B18 | 18 nM | 0.0023 s⁻¹ | 130000 M⁻¹ s⁻¹
31 | B19 | 39 nM | 0.0023 s⁻¹ | 59000 M⁻¹ s⁻¹

target: T2, monovalent hVISTA-ECD (amino acids …); experiment: SPR 37C, Ab on Protein A, hVISTA-ECD 50-5 nM, pH 6.0, average
Procedure: as §1

Row | Binder | Kd | koff | kon
32 | B13 | 2.4 nM | 0.0044 s⁻¹ | 1.9e+06 M⁻¹ s⁻¹
33 | B14 | 0.86 nM | 0.0012 s⁻¹ | 1.4e+06 M⁻¹ s⁻¹
34 | B15 | 0.73 nM | 0.00051 s⁻¹ | 700000 M⁻¹ s⁻¹
35 | B16 | 2.7 nM | 0.0045 s⁻¹ | 1.7e+06 M⁻¹ s⁻¹
36 | B17 | 0.19 nM | 0.00012 s⁻¹ | 630000 M⁻¹ s⁻¹
37 | B18 | 0.22 nM | 0.00029 s⁻¹ | 1.3e+06 M⁻¹ s⁻¹
38 | B19 | 0.38 nM | 0.00022 s⁻¹ | 570000 M⁻¹ s⁻¹
